Results published in patent publication US8722850B2, “Self-assembling peptides and their use in the formation of hydrogels” (Universita' Degli Studi di Milano Bicocca, priority 2010, dated 2014).
“Also recorded” adds a separate entry of the source. The star is where a group is joined. Biotin = O=C1N[C@H]2[C@H](CS[C@H]2CCCCC(=O)*)N1

How the values were obtained:
[1] = Macro-scale scaffold formation upon exposure to PBS / neutral pH buffer; format: physicochemical; details: upon exposure to PBS (1×) / neutral pH buffer
From the text: The tested peptides solutions appearance ranged from peptides giving clear liquid is solutions (e.g. 4, B15, B19, B25, B28, 30) to samples which become opaque in 1 to 7 days after dissolution (e.g. B3, B17, B22, B24, B27, 31) as shown in FIG. 2a (I). Most of the liquid solutions increased in viscosity over the first week after dissolution, however after ten days in water no appreciable changes happened at the macroscale.
Nonetheless, keeping constant the observation time, the storage moduli of peptide solutions previously dissolved (the day before) at 3% w/v were measured. Measurements were obtained of these peptide solutions, further diluted to 1% w/v at the same day of the experiment (unless otherwise specified), and, after addition of PBS, of the formed scaffolds.

[2] = system: human Neural Stem Cells (hNSCs); assay: Phase contrast imaging of hNSC morphology on scaffolds; format: cell-based; details: 7 days in vitro
Procedure: In vitro tests were performed following a previously adopted methodology (5). Briefly, cells (at a concentration of 6×10^4 cells/cm^2) were seeded on the top-surface of each assembled scaffold previously assembled into 96 multiwells. Initially, cells were cultured with basal medium supplemented with βFGF (10 ng/ml), added to enhance neuronal progeny differentiation. At 3 days in vitro (DIV), βFGF medium was replaced with Leukemia Inhibitory Factor (LIF, Chemicon) (20 ng/ml) and Brain Derived Neurotrophic Factor (BDNF, Peprotech) (20 ng/ml). Fresh medium was added every three days. Positive and negative controls consisted of CULTREX-BME® substrate (R&D systems) (1:100 dilution in basal medium) and untreated bottom well surfaces respectively.
To assess the potential of the proposed SAPs for cell cultures and, more generally, for regenerative medicine, a two-dimensional cell culture protocol already developed for RADA16-I-like peptides was adapted (5). Briefly, human Neural Stem Cells (hNSCs), mechanically dissociated 1 day before plating, were seeded and cultured for one week in vitro over self-assembled scaffolds of B3, 4, B15, B17, B19, B22, B24, B25, B27, B28, 30, 31 and over non-coated tissue culture plastic wells (negative control).

[3] = Self-healing tests of assembled scaffolds after mechanical rupture; format: physicochemical; details: recovery of scaffold stiffness after mechanical rupture
Procedure: Rheological properties were determined for the peptides of the invention, using a controlled stress TA Instruments AR-2000ex rheometer (TAInstruments). A cone-and-plate geometry (acrylic cone diameter, 20 mm; angle, 1°; truncation gap 34 μm) was used. All measurements were obtained at a constant monitored temperature of 25° C. Preliminary strain sweeps were performed for each sample to define the linear viscoelastic region, thus ensuring that moduli were independent of strain. Time sweeps, after addition of PBS (1×) were recorded at constant angular frequency (ω=1 Hz). Frequency sweeps, both for peptide water solutions and for self-assembled scaffolds, were performed with the instrument in oscillatory mode at controlled strain of 1%. Final: onset point of rupture was calculated by linear interpolation and subsequent determination of the intersection of the G′ modes in the linear region and at material rupture respectively. G′ values were averaged in the 1-100 Hz region and between n=3 independent replicates. During self-healing tests the self-assembled scaffold was torn by applying a strain sweep (0.01%-1000% strain range) at 1 Hz oscillatory frequency. G′ values were is recorded in frequency sweep mode (at 1% strain) or, in time sweep mode (at 1 Hz and at 1% strain), before and after the strain sweep step, subsequent observations were performed every half hour or, in case of time sweep test, every 30 seconds. In all of the SAPs the difference between the storage moduli measured before and after PBS addition spanned from two to four orders of magnitude, proving the dramatic biomechanical changes taking place during scaffold gelation. Peptide B3 (1%) yielded a solid stiff scaffold (G′=2917 Pa), supporting the idea that ionic charges may screen the electrostatic repulsions given by positively charged lysine residues and speed up the spontaneous ongoing self-assembling process, on its turn giving an already viscous (G′=67 Pa) and opaque solution at day 1. Among the peptides giving soft scaffold (100 Pa-1000 Pa range) peptides 4, B19, B25, B28 and 30 were included. On the opposite side, SAPs yielding solid stiff scaffolds are B15, B22, B24, B27 and 31 (5000 Pa-9000 Pa range).
Solid scaffolds were obtained via addition of PBS (1×) in a cone-and-plate rheometer; we measured the storage modulus, the samples were subjected to a strain sweep (0.01% to 1000%) until and far beyond rupture occurred (i.e. is monitoring the sudden drop of G′ value). Samples were then left in place (keeping them hydrated with PBS) and their G′ were measured every 30 minutes via frequency sweep tests in the range of 0.1 Hz to 60 Hz. As a negative control KLD-12, a well-known SAP, was tested (4, 6). […] In FIG. 6b peptide B25 (3% w/v concentration) was assessed for self-healing in a time sweep mode, every 30 seconds, at 1 Hz and at 1% strain. Values of G′ recovered after 100 minutes (1000 Pa) and steadily plateaued over time. For peptides B3, B22, B25 and B27 full recovery was obtained at different time intervals after rupture, ranging from 60′ to 240′. Similar results were confirmed by multiple independent experiments, but at different time ranges, for all of the self-assembling peptides except for B19 and B28.
Samples were checked for rupture by tilting. After a maximum of four hours all of the samples returned to their solidified gel appearance. This healing could be repeated at will.

Ac-F-GGG-AFASTKT-GIKVAV-CONH2 (Ac-FGGGAFASTKTGIKVAV-NH2) [compound 59]
solid scaffold / hydrogel formation [1]: yielded solid scaffolds

Ac-F-GGG-AFSSTKT-CONH2 (Ac-FGGGAFSSTKT-NH2) [compound 61]
solid scaffold / hydrogel formation [1]: yielded solid scaffolds

Ac-FGGG-PFSSTKT-CONH2 (Ac-FGGGPFSSTKT-NH2) [compound 37]
solid scaffold / hydrogel formation [1]: yielded solid scaffolds

Ac-GGGPFSSTKT-CONH2 (Ac-GGGPFSSTKT-NH2) [peptide 2, biotin-deleted version of B3 that formed no scaffold]
solid scaffold / hydrogel formation [1]: prevented any scaffold formation

Ac-WGGGAFASTKT-CONH2 (Ac-WGGGAFASTKT-NH2) [compound 30]
cell morphology / degree of spreading [2]: single spherical cells | solid scaffold / hydrogel formation [1]: yielded solid scaffolds

Ac-Y-GGG-PFSSTKT-CONH2 (Ac-YGGGPFSSTKT-NH2) [peptide 60]
solid scaffold / hydrogel formation [1]: yielded solid scaffolds

Biot-GGGGGPFSSTKT-CONH2 (Biotin-GGGGGPFSSTKT-NH2; SMILES C[C@@H](O)[C@H](NC(=O)[C@H](CCCCN)NC(=O)[C@@H](NC(=O)[C@H](CO)NC(=O)[C@H](CO)NC(=O)[C@H](Cc1ccccc1)NC(=O)[C@@H]1CCCN1C(=O)CNC(=O)CNC(=O)CNC(=O)CNC(=O)CNC(=O)CCCC[C@@H]1SC[C@@H]2NC(=O)N[C@@H]21)[C@@H](C)O)C(N)=O) [peptide B25]
self-healing property [3]: self-healing property has been seen | solid scaffold / hydrogel formation [1]: yielded solid scaffolds

Biot-GGGKFSSTPT-CONH2 (Biotin-GGGKFSSTPT-NH2; SMILES C[C@@H](O)[C@H](NC(=O)[C@@H]1CCCN1C(=O)[C@@H](NC(=O)[C@H](CO)NC(=O)[C@H](CO)NC(=O)[C@H](Cc1ccccc1)NC(=O)[C@H](CCCCN)NC(=O)CNC(=O)CNC(=O)CNC(=O)CCCC[C@@H]1SC[C@@H]2NC(=O)N[C@@H]21)[C@@H](C)O)C(N)=O) [B64]
solid scaffold / hydrogel formation [1]: yielded solid scaffolds; also recorded: self-assembled giving a hydrogel upon exposure to PBS

Biot-GGGPFSETKT-CONH2 (Biotin-GGGPFSETKT-NH2; SMILES C[C@@H](O)[C@H](NC(=O)[C@H](CCCCN)NC(=O)[C@@H](NC(=O)[C@H](CCC(=O)O)NC(=O)[C@H](CO)NC(=O)[C@H](Cc1ccccc1)NC(=O)[C@@H]1CCCN1C(=O)CNC(=O)CNC(=O)CNC(=O)CCCC[C@@H]1SC[C@@H]2NC(=O)N[C@@H]21)[C@@H](C)O)C(N)=O) [peptide B17]
cell morphology / degree of spreading [2]: proliferated cell clusters | self-healing property [3]: self-healing property has been seen | solid scaffold / hydrogel formation [1]: yielded solid scaffolds

Biot-GGGPFSSKTT-CONH2 (Biotin-GGGPFSSKTT-NH2; SMILES C[C@@H](O)[C@H](NC(=O)[C@@H](NC(=O)[C@H](CCCCN)NC(=O)[C@H](CO)NC(=O)[C@H](CO)NC(=O)[C@H](Cc1ccccc1)NC(=O)[C@@H]1CCCN1C(=O)CNC(=O)CNC(=O)CNC(=O)CCCC[C@@H]1SC[C@@H]2NC(=O)N[C@@H]21)[C@@H](C)O)C(N)=O) [B66]
solid scaffold / hydrogel formation [1]: self-assembled giving a hydrogel upon exposure to PBS

Biot-GGGPFSSTTK-CONH2 (Biotin-GGGPFSSTTK-NH2; SMILES C[C@@H](O)[C@H](NC(=O)[C@H](CO)NC(=O)[C@H](CO)NC(=O)[C@H](Cc1ccccc1)NC(=O)[C@@H]1CCCN1C(=O)CNC(=O)CNC(=O)CNC(=O)CCCC[C@@H]1SC[C@@H]2NC(=O)N[C@@H]21)C(=O)N[C@H](C(=O)N[C@@H](CCCCN)C(N)=O)[C@@H](C)O) [B67]
solid scaffold / hydrogel formation [1]: self-assembled giving a hydrogel upon exposure to PBS

Biot-GGGPKSSTFT-CONH2 (Biotin-GGGPKSSTFT-NH2; SMILES C[C@@H](O)[C@H](NC(=O)[C@H](Cc1ccccc1)NC(=O)[C@@H](NC(=O)[C@H](CO)NC(=O)[C@H](CO)NC(=O)[C@H](CCCCN)NC(=O)[C@@H]1CCCN1C(=O)CNC(=O)CNC(=O)CNC(=O)CCCC[C@@H]1SC[C@@H]2NC(=O)N[C@@H]21)[C@@H](C)O)C(N)=O) [B65]
solid scaffold / hydrogel formation [1]: yielded solid scaffolds; also recorded: self-assembled giving a hydrogel upon exposure to PBS

Biot-GGGPWSSTKT-CONH2 (Biotin-GGGPWSSTKT-NH2; SMILES C[C@@H](O)[C@H](NC(=O)[C@H](CCCCN)NC(=O)[C@@H](NC(=O)[C@H](CO)NC(=O)[C@H](CO)NC(=O)[C@H](Cc1c[nH]c2ccccc12)NC(=O)[C@@H]1CCCN1C(=O)CNC(=O)CNC(=O)CNC(=O)CCCC[C@@H]1SC[C@@H]2NC(=O)N[C@@H]21)[C@@H](C)O)C(N)=O) [B27]
self-healing property [3]: self-healing property has been seen | solid scaffold / hydrogel formation [1]: yielded solid scaffolds

Biot-PFSSTKT-CONH2 (Biotin-PFSSTKT-NH2; SMILES C[C@@H](O)[C@H](NC(=O)[C@H](CCCCN)NC(=O)[C@@H](NC(=O)[C@H](CO)NC(=O)[C@H](CO)NC(=O)[C@H](Cc1ccccc1)NC(=O)[C@@H]1CCCN1C(=O)CCCC[C@@H]1SC[C@@H]2NC(=O)N[C@@H]21)[C@@H](C)O)C(N)=O) [peptide B7, non-assembling control peptide]
solid scaffold / hydrogel formation [1]: not give a solid scaffold

Biotin-G-AFASTKT-CONH2 [B50]
solid scaffold / hydrogel formation [1]: yielded solid scaffolds

Biotin-GGGAFASTKA-NH2 [B33]
solid scaffold / hydrogel formation [1]: yielded solid scaffolds

Biotin-GGGAWASTKT-NH2 [B32]
solid scaffold / hydrogel formation [1]: yielded solid scaffolds

Biotin-GGGGG-AFASTKT-CONH2 [B51]
solid scaffold / hydrogel formation [1]: yielded solid scaffolds

Biotin-GGGPFSSTKTP-NH2 [B34]
solid scaffold / hydrogel formation [1]: yielded solid scaffolds
